Source: article PMC2928749, “Understanding the Role of the Josephin Domain in the PolyUb Binding and Cleavage Properties of Ataxin-3” (PLoS ONE, 2010)

Tests used:
[1] = target: T1, K63-linked diUb (made from UbD77 and UbK63R) (UniProt P0CG47 1-76; P0CG47 1-76, UbD77 | UbK63R, K63-linked to the other Ub (isopeptide bond between K63 and G76) | K63-linked to the other Ub (isopeptide bond between K63 and G76)); test: NMR titration; 15N-labelled Josephin (C14A) 0.05 mM in 20 mM sodium phosphate pH 6.5, 2 mM DTT, 298 K, 600 MHz; stepwise additions of unlabelled K48- or K63-linked diUb up to 10 and 2.5 fold molar excess; chemical shift perturbation; details: both partners purified
T1 construct: ubiquitin, mutant UbD77; ubiquitin, mutant UbK63R; By the usual protocol G76 of UbK63R is joined to K63 of UbD77; also called K63-linked diUb chains; K63-diUb; source: recombinant Ub mutants joined with E1, Ubc13 and Uev1a by the same protocol, purified on a monoS cation exchange column; copies: 1 + 1

[2] = target: T2, K48-linked diUb (made from UbD77 and UbK48C) (UniProt P0CG47 1-76; P0CG47 1-76, UbD77 | UbK48C, K48-linked to the other Ub (isopeptide bond between K48 and G76) | K48-linked to the other Ub (isopeptide bond between K48 and G76)); test: as above; details: both partners purified
T2 construct: ubiquitin, mutant UbD77; ubiquitin, mutant UbK48C; also called K48-linked diUb chains; K48-diUb; copies: 1 + 1

binding result [1]: binds
binding result [2]: binds
B1: Josephin domain of ataxin-3 (amino acids 1-182), C14A mutant, 15N labelled (domain or fragment, UniProt P54252 1-182, looked up)
chain: MESIFHEKQEGSLAAQHCLNNLLQGEYFSPVELSSIAHQLDEEERMRMAEGGVTSEDYRTFLQQPSGNMDDSGFFSIQVISNALKVWGLELILFNSPEYQRLRIDPINERSFICNYKEHWFTVRKLGKQWFNLNSLLTGPELISDTYLALFLAQLQQEGYSIFVVKGDLPDCEADQLLQMIR
modifications: 15N labelled
notes: ataxin-3, N-terminal catalytic Josephin domain, amino acids 1-182; catalytic cysteine mutated so that no cleavage could occur; The methods speak of titrations of 15N Josephin or of the C14A mutant; the results say that C14A was used; also called isolated Josephin domain; C14A Josephin mutant; source: E. coli BL21(DE3), purified as previously described [35]; grown in synthetic medium with 15NH4Cl
